B1: Histidine--tRNA ligase, cytoplasmic, residues 8 to 45; numbered along this chain, P12081 (parent)
chain: EELVKLQGERVRGLKQQKASAELIEEEVAKLLKLKAQL

± gives the uncertainty stated by the source.

This data set covers variants of B1. Kind of data set: abundance fitness (aPCA) (normalised: wild type 0, dead -1); higher = more abundant; growth selection in yeast, the domain comes from the species named. Conditions: Homo sapiens.
EELVKLQGERVRGLKQQKASAELIEEEVAKRLKLKAQL [L31R]: the abundance fitness was -0.126 ± 0.07.

EELVKLQGERVRGLKQQKASAELIEEEVAKHLKLKAQL [L31H]: the abundance fitness is -0.144 ± 0.11.

On to EELVKLQGERVRGLKQQKASAELIEEEVAKGLKLKAQL [L31G], for which the abundance fitness was -0.044 ± 0.093.

Turning to EELVKLQGERVRGLKQQKASAELIEEEVAKMLKLKAQL [L31M], the abundance fitness is -0.338 ± 0.12.

Regarding EELVKLQGERVRGLKQQKASAELIEEEVAKELKLKAQL [L31E], the abundance fitness is 0.257 ± 0.09.

As for EELVKLQGERVRGLKQQKASAELIEEEVAKILKLKAQL [L31I], the abundance fitness was -0.426 ± 0.087.

Take EELVKLQGERVRGLKQQKASAELIEEEVAKWLKLKAQL [L31W]: the abundance fitness is -0.172 ± 0.093.

Regarding EELVKLQGERVRGLKQQKASAELIEEEVAKVLKLKAQL [L31V], the abundance fitness was -0.436 ± 0.073.

For EELVKLQGERVRGLKQQKASAELIEEEVAKQLKLKAQL [L31Q], the abundance fitness came out at 0.087 ± 0.12.

As to EELVKLQGERVRGLKQQKASAELIEEEVAKKLKLKAQL [L31K], the abundance fitness was determined as 0.002 ± 0.098.

Turning to EELVKLQGERVRGLKQQKASAELIEEEVAKNLKLKAQL [L31N], the abundance fitness amounted to 0.22 ± 0.11.

On to EELVKLQGERVRGLKQQKASAELIEEEVAKDLKLKAQL [L31D], for which the abundance fitness was determined as 0.222 ± 0.094.

In the case of EELVKLQGERVRGLKQQKASAELIEEEVAKALKLKAQL [L31A], the abundance fitness is -0.084 ± 0.1.

With EELVKLQGERVRGLKQQKASAELIEEEVAKYLKLKAQL [L31Y], the abundance fitness is -0.199 ± 0.1.

Consider EELVKLQGERVRGLKQQKASAELIEEEVAKSLKLKAQL [L31S], for which the abundance fitness was found to be 0.026 ± 0.076.

Take EELVKLQGERVRGLKQQKASAELIEEEVAKPLKLKAQL [L31P]: the abundance fitness was found to be 0.123 ± 0.088.

Take EELVKLQGERVRGLKQQKASAELIEEEVAKCLKLKAQL [L31C]: the abundance fitness is -0.187 ± 0.097.

In the case of EELVKLQGERVRGLKQQKASAELIEEEVAKFLKLKAQL [L31F], the abundance fitness is -0.397 ± 0.084.

As to EELVKLQGERVRGLKQQKASAELIEEEVAKTLKLKAQL [L31T], the abundance fitness is -0.058 ± 0.093.

For EELVKLQGERVRGLKQQKASAELIEEEVAGLLKLKAQL [K30G], the abundance fitness was -0.364 ± 0.11.

With EELVKLQGERVRGLKQQKASAELIEEEVAELLKLKAQL [K30E], the abundance fitness came out at 0.1 ± 0.09.

As to EELVKLQGERVRGLKQQKASAELIEEEVAHLLKLKAQL [K30H], the abundance fitness was -0.247 ± 0.097.

Take EELVKLQGERVRGLKQQKASAELIEEEVAMLLKLKAQL [K30M]: the abundance fitness is -0.234 ± 0.13.

On to EELVKLQGERVRGLKQQKASAELIEEEVAYLLKLKAQL [K30Y], for which the abundance fitness is -0.484 ± 0.11.

For EELVKLQGERVRGLKQQKASAELIEEEVATLLKLKAQL [K30T], the abundance fitness is -0.246 ± 0.078.

As for EELVKLQGERVRGLKQQKASAELIEEEVADLLKLKAQL [K30D], the abundance fitness was determined as 0.072 ± 0.15.

For the variant EELVKLQGERVRGLKQQKASAELIEEEVANLLKLKAQL [K30N], the abundance fitness is -0.119 ± 0.084.

As to EELVKLQGERVRGLKQQKASAELIEEEVAVLLKLKAQL [K30V], the abundance fitness was -0.136 ± 0.094.

Turning to EELVKLQGERVRGLKQQKASAELIEEEVAALLKLKAQL [K30A], the abundance fitness was -0.04 ± 0.081.

With EELVKLQGERVRGLKQQKASAELIEEEVAPLLKLKAQL [K30P], the abundance fitness was -0.219 ± 0.074.

As for EELVKLQGERVRGLKQQKASAELIEEEVAFLLKLKAQL [K30F], the abundance fitness was -0.722 ± 0.097.

Take EELVKLQGERVRGLKQQKASAELIEEEVALLLKLKAQL [K30L]: the abundance fitness is -0.211 ± 0.076.

For EELVKLQGERVRGLKQQKASAELIEEEVARLLKLKAQL [K30R], the abundance fitness is -0.204 ± 0.079.

EELVKLQGERVRGLKQQKASAELIEEEVACLLKLKAQL [K30C]: the abundance fitness is -0.411 ± 0.08.

Regarding EELVKLQGERVRGLKQQKASAELIEEEVASLLKLKAQL [K30S], the abundance fitness was -0.218 ± 0.069.

As to EELVKLQGERVRGLKQQKASAELIEEEVAQLLKLKAQL [K30Q], the abundance fitness is -0.102 ± 0.12.

On to EELVKLQGERVRGLKQQKASAELIEEEVAILLKLKAQL [K30I], for which the abundance fitness was -0.232 ± 0.098.

For the variant EELVKLQGERVRGLKQQKASAELIEEEVAWLLKLKAQL [K30W], the abundance fitness was -0.639 ± 0.12.

For EELVKLQGERVRGLKQQKASAELIEEECAKLLKLKAQL [V28C], the abundance fitness was -0.076 ± 0.093.

In the case of EELVKLQGERVRGLKQQKASAELIEEELAKLLKLKAQL [V28L], the abundance fitness was -0.271 ± 0.076.

As to EELVKLQGERVRGLKQQKASAELIEEEFAKLLKLKAQL [V28F], the abundance fitness was -0.378 ± 0.078.

Turning to EELVKLQGERVRGLKQQKASAELIEEEIAKLLKLKAQL [V28I], the abundance fitness was -0.303 ± 0.09.

Regarding EELVKLQGERVRGLKQQKASAELIEEEGAKLLKLKAQL [V28G], the abundance fitness was -0.195 ± 0.11.

Turning to EELVKLQGERVRGLKQQKASAELIEEEMAKLLKLKAQL [V28M], the abundance fitness was found to be 0.06 ± 0.1.

Regarding EELVKLQGERVRGLKQQKASAELIEEEQAKLLKLKAQL [V28Q], the abundance fitness came out at 0.366 ± 0.1.

With EELVKLQGERVRGLKQQKASAELIEEEEAKLLKLKAQL [V28E], the abundance fitness was found to be 0.316 ± 0.13.

On to EELVKLQGERVRGLKQQKASAELIEEEHAKLLKLKAQL [V28H], for which the abundance fitness is -0.012 ± 0.1.

For EELVKLQGERVRGLKQQKASAELIEEENAKLLKLKAQL [V28N], the abundance fitness is 0.081 ± 0.098.

For the variant EELVKLQGERVRGLKQQKASAELIEEERAKLLKLKAQL [V28R], the abundance fitness was -0.027 ± 0.084.

For EELVKLQGERVRGLKQQKASAELIEEEPAKLLKLKAQL [V28P], the abundance fitness is -0.119 ± 0.1.

EELVKLQGERVRGLKQQKASAELIEEESAKLLKLKAQL [V28S]: the abundance fitness stood at 0.094 ± 0.08.

EELVKLQGERVRGLKQQKASAELIEEETAKLLKLKAQL [V28T]: the abundance fitness amounted to 0.159 ± 0.099.

On to EELVKLQGERVRGLKQQKASAELIEEEAAKLLKLKAQL [V28A], for which the abundance fitness is 0.177 ± 0.095.

With EELVKLQGERVRGLKQQKASAELIEEEKAKLLKLKAQL [V28K], the abundance fitness worked out at 0.107 ± 0.14.

On to EELVKLQGERVRGLKQQKASAELIEEEDAKLLKLKAQL [V28D], for which the abundance fitness was determined as 0.152 ± 0.11.

As to EELVKLQGERVRGLKQQKASAELIEEEVTKLLKLKAQL [A29T], the abundance fitness is -0.26 ± 0.1.

Consider EELVKLQGERVRGLKQQKASAELIEEEVCKLLKLKAQL [A29C], for which the abundance fitness was -0.415 ± 0.093.

For EELVKLQGERVRGLKQQKASAELIEEEVVKLLKLKAQL [A29V], the abundance fitness was -0.277 ± 0.084.

On to EELVKLQGERVRGLKQQKASAELIEEEVWKLLKLKAQL [A29W], for which the abundance fitness was -0.804 ± 0.17.

Consider EELVKLQGERVRGLKQQKASAELIEEEVRKLLKLKAQL [A29R], for which the abundance fitness was -0.189 ± 0.076.

As for EELVKLQGERVRGLKQQKASAELIEEEVNKLLKLKAQL [A29N], the abundance fitness was -0.183 ± 0.081.

EELVKLQGERVRGLKQQKASAELIEEEVKKLLKLKAQL [A29K]: the abundance fitness was -0.299 ± 0.17.

Regarding EELVKLQGERVRGLKQQKASAELIEEEVMKLLKLKAQL [A29M], the abundance fitness is -0.069 ± 0.11.

Consider EELVKLQGERVRGLKQQKASAELIEEEVDKLLKLKAQL [A29D], for which the abundance fitness came to 0.106 ± 0.11.

On to EELVKLQGERVRGLKQQKASAELIEEEVPKLLKLKAQL [A29P], for which the abundance fitness was -0.37 ± 0.09.

The values above are taken from the Human Domainome abundance scans (Beltran et al. 2025).
